Assay results from patent publication US20040192609A1.

How the values were obtained:
[1] = molecular target: gp120 of the HIV-1 isolate ADA (HIV-1); experiment: scFv precipitated with Protein L-Sepharose, radiolabeled ADA gp120 with and without soluble CD4, densitometry
[2] = molecular target: envelope glycoprotein of the R5-isolate ADA on pseudotyped HIV-1 (HIV-1); experiment: cell-based or functional assay

17b scFv
enhancement of binding to gp120 by soluble CD4 [1]: > 2 fold

47e scFv (wt)
enhancement of binding to gp120 by soluble CD4 [1]: > 2 fold

412d scFv (wt)
enhancement of binding to gp120 by soluble CD4 [1]: > 2 fold

CD4 binding site antibody F105
EC50 of neutralization of ADA virus [2]: 0.2 to 0.5 µg/mL

E51 scFv
increase of binding to gp120 in the presence of CD4 [1]: 40%

antibody 17b
EC50 of neutralization of ADA virus [2]: > 2 µg/mL

antibody 412d
EC50 of neutralization of ADA virus [2]: 0.2 to 0.5 µg/mL

antibody E51
EC50 of neutralization of ADA virus [2]: < 0.05 µg/mL
